Test results from paper PMC3469469.
Where two headings read alike, the source gives them in different places.

Tests used:
[1] = molecular target: C3d C3d (Homo sapiens) (UniProt P01024); settings: cited from earlier work
[2] = molecular target: complement C3b (human) (UniProt P01024)
[3] = molecular target: C3d C3d (Homo sapiens) (UniProt P01024); settings: cited from earlier work; remark: listed apart in the source

C3d C3d (Homo sapiens), sequence (P01024 1002-1303): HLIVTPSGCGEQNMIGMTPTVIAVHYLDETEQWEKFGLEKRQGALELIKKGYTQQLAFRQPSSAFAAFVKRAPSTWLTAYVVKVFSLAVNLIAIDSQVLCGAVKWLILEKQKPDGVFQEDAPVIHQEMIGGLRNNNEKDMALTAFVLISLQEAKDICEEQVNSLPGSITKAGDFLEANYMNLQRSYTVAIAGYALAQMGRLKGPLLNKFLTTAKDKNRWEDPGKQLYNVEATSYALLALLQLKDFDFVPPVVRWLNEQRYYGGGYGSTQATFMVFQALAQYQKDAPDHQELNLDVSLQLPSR
Efb-C (domain or fragment), sequence (A6QG59 101-165 limits assumed): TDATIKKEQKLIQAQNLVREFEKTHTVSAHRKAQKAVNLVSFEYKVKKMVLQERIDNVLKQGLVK
Efb Efb-C, sequence (P68799 101-165): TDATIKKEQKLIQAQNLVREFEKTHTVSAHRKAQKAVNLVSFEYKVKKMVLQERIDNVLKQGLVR

Sbi domains 3-4 (from UniProt A7X659)
Kd [1]: 1.4 µM

Sbi 3–4 (domain or fragment)
C3b left on serum-opsonized S. aureus after plasmin with 2 µM fragment, flow cytometry (amount without plasmin set to 100%) [2]: 50%

Efb-C (domain or fragment)
C3b left on serum-opsonized S. aureus after plasmin with 2 µM fragment, flow cytometry (amount without plasmin set to 100%) [2]: 38%

Efb Efb-C (from UniProt P68799)
Kd [3]: 0.0008 µM
